Test results taken from US20250179205A1 (Hoffmann-La Roche, published 2025).

Legend:
[1] = target: T1, human fibroblast activation protein (huFAP) (human, UniProt Q12884 1-760); experiment: flow cytometry, NIH/3T3-huFAP clone 19 cells, PE anti-human Fc F(ab')2
T1 construct: expressed on transfected NIH/3T3-huFAP clone 19 cells; also called human FAP
Protocol: (§1) NIH/3T3-huFAP clone 19 and NIH/3T3-mFAP clone 26 were generated by the transfection of the mouse embryonic fibroblast NIH/3T3 cell line (ATCC CRL-1658) with the expression vector pETR4921 to express under 1.5 μg/mL Puromycin selection huFAP or mFAP, respectively.
(§2) NIH/3T3-huFAP, NIH/3T3-mFAP or NIH/3T3-wt cells were cultured with 1× Dulbecco's Modified Eagle's Medium (DMEM) (Gibco, Cat. No. 42430-025) supplemented with 10% Fetal Bovine Serum (FBS) (life technologies, Cat. No. 16140, Lot No. 1797306A). For the NIH/3T3-huFAP and NIH/3T3-mFAP cells 1.5 μg/mL Puromycin (Gibco, Cat. No. A11138-03) was added to the medium for selection of FAP-expressing cells. NIH/3T3 cells were removed from the plate by using enzyme-free Cell Dissociation Buffer (Gibco, Cat. No. 13151014). 0.3×10⁵ NIH/3T3-huFAP clone 19, NIH/3T3-mFAP clone 26 or NIH/3T3-wt were added in 200 μl of 1×DMEM 10% FBS to each well of a round-bottom 96-well plate (Greiner Bio-One, CELLSTAR®, Cat. No. 650185). Plates were centrifuged 5 minutes at 1700 rpm and supernatants were flicked off. Cells were washed once with 200 μL of 4° C. cold FACS buffer (eBioscience, Cat. No. 00-4222-26). All samples were resuspended in 50 μL/well of 4° C. cold FACS buffer containing the bispecific antigen binding molecules (primary antibody) or isotype control antibody DP47 at the indicated range of concentrations (in duplicates) and incubated for 120 minutes at 4° C. Afterwards the cells were washed three times with 200 μL 4° C. cold FACS buffer. Cells were further stained with 25 μL/well of 4° C. cold secondary antibody solution (1:50 dilution of secondary antibody) containing R-Phycoerythrin (PE) conjugated AffiniPure F(ab′)₂ Fragment Goat Anti-Human IgG, Fcγ Fragment Specific (Jackson ImmunoResearch, Cat. No. 109-116-098) and incubated for 60 minutes at 4° C. in the dark. Cells were washed with 200 μl FACS buffer and resuspended in 85 μL/well FACS-buffer containing 0.2 μg/mL DAPI (Roche, Cat. No. 10236276001) and acquired the same day using 5-laser LSR-Fortessa (BD Bioscience with DIVA software). Data analysis was performed using the FlowJo version 10 software (FlowJo LLC).

[2] = target: T2, mouse fibroblast activation protein (mFAP) (mouse, UniProt P97321 1-761); experiment: flow cytometry on NIH/3T3-mFAP cells (3T3_mFAP), PE-labelled anti-human IgG Fcgamma F(ab')2 secondary, MFI baseline corrected
T2 construct: expressed on transfected NIH/3T3-mFAP clone 26 cells; also called murine FAP; mouse FAP
T2 sequence (P97321 whole entry): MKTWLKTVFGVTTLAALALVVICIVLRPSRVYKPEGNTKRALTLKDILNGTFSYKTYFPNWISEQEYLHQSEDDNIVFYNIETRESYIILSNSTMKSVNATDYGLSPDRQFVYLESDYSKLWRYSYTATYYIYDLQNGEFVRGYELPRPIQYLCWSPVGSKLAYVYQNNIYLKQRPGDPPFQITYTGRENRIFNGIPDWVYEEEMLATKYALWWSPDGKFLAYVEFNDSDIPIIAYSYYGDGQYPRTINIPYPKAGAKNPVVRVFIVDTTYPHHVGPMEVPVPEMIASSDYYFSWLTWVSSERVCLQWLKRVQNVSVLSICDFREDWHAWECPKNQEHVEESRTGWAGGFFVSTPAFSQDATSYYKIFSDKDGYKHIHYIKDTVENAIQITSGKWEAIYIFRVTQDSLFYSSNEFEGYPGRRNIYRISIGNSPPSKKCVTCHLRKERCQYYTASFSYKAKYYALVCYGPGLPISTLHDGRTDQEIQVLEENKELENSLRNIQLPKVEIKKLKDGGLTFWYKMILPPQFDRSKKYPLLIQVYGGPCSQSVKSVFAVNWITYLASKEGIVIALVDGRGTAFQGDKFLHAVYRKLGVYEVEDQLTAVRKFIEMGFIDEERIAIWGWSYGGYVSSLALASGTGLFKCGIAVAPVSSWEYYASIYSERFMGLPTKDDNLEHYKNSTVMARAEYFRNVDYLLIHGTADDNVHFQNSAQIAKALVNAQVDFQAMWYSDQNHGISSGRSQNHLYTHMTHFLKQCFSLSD
Protocol: as §1, §2

[3] = target: T3, His-tagged human dimeric FAP (recombinant FAP_ECD) (human, UniProt Q12884 27-760); experiment: SPR (Biacore T200), His-tagged dimeric huFAP ECD captured by anti-His, antibody as analyte, 1:1 fit (avidity)
T3 construct: also called hu FAP ectodomain + poly-lys-tag + his6-tag
Protocol: The capacity of the bispecific constructs to bind human FAP was assessed by surface plasmon resonance (SPR). All SPR experiments were performed on a BIACORE® T200 (BIACORE®) at 25° C. with HBS-EP as running buffer (0.01 M HEPES pH 7.4, 0.15 M NaCl, 3 mM EDTA, 0.005% Surfactant P20, (BIACORE®).
His-tagged human dimeric FAP (recombinant FAP_ECD) was captured on a CM5 chip (GE Healthcare) immobilized with anti-His antibody (Qiagen Cat. No. 34660) by injection of 500 nM huFAP for 60 s at a flow rate of 10 uL/min, 10 nM murine FAP for 20 s at a flow rate of 20 uL/min and 10 nM cynoFAP for 20 s at a flow rate of 20 uL/min. Immobilization levels for the anti-His antibody of up to 18000 resonance units (RU) were used. Following the capture step, the bispecific antibodies as well as control molecules were immediately passed over the chip surface at a concentration ranging from 0.78-100 nM with a flow rate of […] for 280 s and a dissociation phase of 180 s. Bulk refractive index differences were corrected for by subtracting the response obtained in a reference flow cell, where no FAP was immobilized. Avidity was determined using the Langmuir 1:1 curve fitting. For bivalent binding the same 1:1 fitting was used leading to an apparent KD value.

Binder	EC50 [1] [nM]	binding result [2]	Kd [3] [nM]	koff [3] [s⁻¹]	kon [3] [M⁻¹ s⁻¹]
P1AA9641 CD40 × FAP (28H1) (2 + 1) (bispecific antibody, human IgG1, kappa, L234A L235A, 28H1 VH and VL fused to the C-termini of the knob and hole heavy chains; also called CD40 × FAP 2 + 1; huCD40-28H1) heavy 1: EVQLVESGGGLVQPGGSLRLSCAASGYSFTGYYIHWVRQAPGKGLEWVARVIPNAGGTSYNQKFKGRFTLSVDNSKNTAYLQMNSLRAEDTAVYYCAREGIYWWGQGTLVTVSSASTKGPSVFPLAPSSKSTSGGTAALGCLVKDYFPEPVTVSWNSGALTSGVHTFPAVLQSSGLYSLSSVVTVPSSSLGTQTYICNVNHKPSNTKVDKKVEPKSCDKTHTCPPCPAPEAAGGPSVFLFPPKPKDTLMISRTPEVTCVVVDVSHEDPEVKFNWYVDGVEVHNAKTKPREEQYNSTYRVVSVLTVLHQDWLNGKEYKCKVSNKALGAPIEKTISKAKGQPREPQVCTLPPSRDELTKNQVSLSCAVKGFYPSDIAVEWESNGQPENNYKTTPPVLDSDGSFFLVSKLTVDKSRWQQGNVFSCSVMHEALHNHYTQKSLSLSPGGGGGSGGGGSGGGGSGGGGSEIVLTQSPGTLSLSPGERATLSCRASQSVSRSYLAWYQQKPGQAPRLLIIGASTRATGIPDRFSGSGSGTDFTLTISRLEPEDFAVYYCQQGQVIPPTFGQGTKVEIK heavy 2: not shown light: DIQMTQSPSSLSASVGDRVTITCRSSQSLVHSNGNTFLHWYQQKPGKAPKLLIYTVSNRFSGVPSRFSGSGSGTDFTLTISSLQPEDFATYFCSQTTHVPWTFGQGTKVEIKRTVAAPSVFIFPPSDEQLKSGTASVVCLLNNFYPREAKVQWKVDNALQSGNSQESVTEQDSKDSTYSLSSTLTLSKADYEKHKVYACEVTHQGLSSPVTKSFNRGEC	33	binds			
P1AD4453 CD40 × FAP (28H1) (4 + 1) (bispecific antibody, human IgG1, kappa, L234A L235A, 28H1 VH and VL fused to the C-termini of the knob and hole heavy chains; also called CD40 × FAP 4 + 1; huCD40-28H1) heavy 1: not shown heavy 2: EVQLVESGGGLVQPGGSLRLSCAASGYSFTGYYIHWVRQAPGKGLEWVARVIPNAGGTSYNQKFKGRFTLSVDNSKNTAYLQMNSLRAEDTAVYYCAREGIYWWGQGTLVTVSSASTKGPSVFPLAPSSKSTSGGTAALGCLVKDYFPEPVTVSWNSGALTSGVHTFPAVLQSSGLYSLSSVVTVPSSSLGTQTYICNVNHKPSNTKVDKKVEPKSCDGGGGSGGGGSEVQLVESGGGLVQPGGSLRLSCAASGYSFTGYYIHWVRQAPGKGLEWVARVIPNAGGTSYNQKFKGRFTLSVDNSKNTAYLQMNSLRAEDTAVYYCAREGIYWWGQGTLVTVSSASTKGPSVFPLAPSSKSTSGGTAALGCLVKDYFPEPVTVSWNSGALTSGVHTFPAVLQSSGLYSLSSVVTVPSSSLGTQTYICNVNHKPSNTKVDKKVEPKSCDKTHTCPPCPAPEAAGGPSVFLFPPKPKDTLMISRTPEVTCVVVDVSHEDPEVKFNWYVDGVEVHNAKTKPREEQYNSTYRVVSVLTVLHQDWLNGKEYKCKVSNKALGAPIEKTISKAKGQPREPQVCTLPPSRDELTKNQVSLSCAVKGFYPSDIAVEWESNGQPENNYKTTPPVLDSDGSFFLVSKLTVDKSRWQQGNVFSCSVMHEALHNHYTQKSLSLSPGGGGGSGGGGSGGGGSGGGGSEIVLTQSPGTLSLSPGERATLSCRASQSVSRSYLAWYQQKPGQAPRLLIIGASTRATGIPDRFSGSGSGTDFTLTISRLEPEDFAVYYCQQGQVIPPTFGQGTKVEIK light: DIQMTQSPSSLSASVGDRVTITCRSSQSLVHSNGNTFLHWYQQKPGKAPKLLIYTVSNRFSGVPSRFSGSGSGTDFTLTISSLQPEDFATYFCSQTTHVPWTFGQGTKVEIKRTVAAPSVFIFPPSDEQLKSGTASVVCLLNNFYPREAKVQWKVDNALQSGNSQESVTEQDSKDSTYSLSSTLTLSKADYEKHKVYACEVTHQGLSSPVTKSFNRGEC	47.1	binds			
P1AD4520 or P1AD9139 mu CD40 (FGK4.5) × FAP (28H1) (4 + 1) (bispecific antibody, mouse IgG1, kappa, murine surrogate, tetravalent for mouse CD40, monovalent for FAP (28H1); mouse IgG1 DAPG, DD/KK; also called 4 + 1 with C-terminal VH/VL fusion; muCD40-28H1) heavy 1: EVQLVESDGGLVQPGRSLKLPCAASGFTFSDYYMAWVRQAPTKGLEWVASISYDGSSTYYRDSVKGRFTISRDNAKSTLYLQMDSLRSEDTATYYCGRHSSYFDYWGQGVMVTVSSAKTTPPSVYPLAPGSAAQTNSMVTLGCLVKGYFPEPVTVTWNSGSLSSGVHTFPAVLQSDLYTLSSSVTVPSSTWPSQTVTCNVAHPASSTKVDKKIVPRDCGGGGSGGGGSEVQLVESDGGLVQPGRSLKLPCAASGFTFSDYYMAWVRQAPTKGLEWVASISYDGSSTYYRDSVKGRFTISRDNAKSTLYLQMDSLRSEDTATYYCGRHSSYFDYWGQGVMVTVSSAKTTPPSVYPLAPGSAAQTNSMVTLGCLVKGYFPEPVTVTWNSGSLSSGVHTFPAVLQSDLYTLSSSVTVPSSTWPSQTVTCNVAHPASSTKVDKKIVPRDCGCKPCICTVPEVSSVFIFPPKPKDVLTITLTPKVTCVVVAISKDDPEVQFSWFVDDVEVHTAQTKPREEQINSTFRSVSELPIMHQDWLNGKEFKCRVNSAAFGAPIEKTISKTKGRPKAPQVYTIPPPKKQMAKDKVSLTCMITNFFPEDITVEWQWNGQPAENYKNTQPIMKTDGSYFVYSKLNVQKSNWEAGNTFTCSVLHEGLHNHHTEKSLSHSPGGGGGSGGGGSGGGGSGGGGSEVQLLESGGGLVQPGGSLRLSCAASGFTFSSHAMSWVRQAPGKGLEWVSAIWASGEQYYADSVKGRFTISRDNSKNTLYLQMNSLRAEDTAVYYCAKGWLGNFDYWGQGTLVTVSS heavy 2: EVQLVESDGGLVQPGRSLKLPCAASGFTFSDYYMAWVRQAPTKGLEWVASISYDGSSTYYRDSVKGRFTISRDNAKSTLYLQMDSLRSEDTATYYCGRHSSYFDYWGQGVMVTVSSAKTTPPSVYPLAPGSAAQTNSMVTLGCLVKGYFPEPVTVTWNSGSLSSGVHTFPAVLQSDLYTLSSSVTVPSSTWPSQTVTCNVAHPASSTKVDKKIVPRDCGGGGSGGGGSEVQLVESDGGLVQPGRSLKLPCAASGFTFSDYYMAWVRQAPTKGLEWVASISYDGSSTYYRDSVKGRFTISRDNAKSTLYLQMDSLRSEDTATYYCGRHSSYFDYWGQGVMVTVSSAKTTPPSVYPLAPGSAAQTNSMVTLGCLVKGYFPEPVTVTWNSGSLSSGVHTFPAVLQSDLYTLSSSVTVPSSTWPSQTVTCNVAHPASSTKVDKKIVPRDCGCKPCICTVPEVSSVFIFPPKPKDVLTITLTPKVTCVVVAISKDDPEVQFSWFVDDVEVHTAQTKPREEQINSTFRSVSELPIMHQDWLNGKEFKCRVNSAAFGAPIEKTISKTKGRPKAPQVYTIPPPKEQMAKDKVSLTCMITNFFPEDITVEWQWNGQPAENYDNTQPIMDTDGSYFVYSDLNVQKSNWEAGNTFTCSVLHEGLHNHHTEKSLSHSPGGGGGSGGGGSGGGGSGGGGSEIVLTQSPGTLSLSPGERATLSCRASQSVSRSYLAWYQQKPGQAPRLLIIGASTRATGIPDRFSGSGSGTDFTLTISRLEPEDFAVYYCQQGQVIPPTFGQGTKVEIK light: DTVLTQSPALAVSPGERVTISCRASDSVSTLMHWYQQKPGQQPKLLIYLASHLESGVPARFSGSGSGTDFTLTIDPVEADDTATYYCQQSWNDPWTFGGGTKLELKRADAAPTVSIFPPSSEQLTSGGASVVCFLNNFYPKDINVKWKIDGSERQNGVLNSWTDQDSKDSTYSMSSTLTLTKDEYERHNSYTCEATHKTSTSPIVKSFNRNEC			2.7	0.00155	576000
4B9 IgG1 (antibody, V domains shown, IgG1; also called Control; FAP(4B9)) VH: EVQLLESGGGLVQPGGSLRLSCAASGFTFSSYAMSWVRQAPGKGLEWVSAIIGSGASTYYADSVKGRFTISRDNSKNTLYLQMNSLRAEDTAVYYCAKGWFGGFNYWGQGTLVTVSS VL: EIVLTQSPGTLSLSPGERATLSCRASQSVTSSYLAWYQQKPGQAPRLLINVGSRRATGIPDRFSGSGSGTDFTLTISRLEPEDFAVYYCQQGIMLPPTFGQGTKVEIK			0.08	0.000172	2.19e+06
